Assay results as given in paper doi:10.1101/2023.02.07.527441.

Target: PmScsC-EcDsbA chimera (Proteus mirabilis | E. coli) (UniProt P0AEG4)
Assay: AUC

- stoichiometry N: 3
Substance: PmScsC-EcDsbA chimera (from UniProt P0AEG4 20-208) (enzyme)
